Source: US20260034194A1, “PHARMACEUTICAL COMPOSITIONS AND METHODS OF TREATING PSP” (priority 2022, published 2026)
Positions count from the first letter of the chain named. Names may count otherwise. “Also recorded” adds a separate entry of the source.

B1: RiSxph: Ranitomeya imitator (Mimic poison frog) saxiphilin, SEQ ID NO: 6 (protein)
chain: MRRSSYAASQEMRMTLRVLLCLCLWALSSAAPNTRNVRWCVTSDTEEQKCNDLVTSCHVDEILLICVKKSSTEDCVRAISNGEADAISLDSKDVYKASLDPFNLKPIMTEAYSESEHTPCMRHRQSVLGGKIMKIGAFVPKCDEKGNYVPKQCHGSTGYCWCLNENGEEIEGTRTPPGNPGLTCENKANKPPCLKERQKLLSAKPSPAVFVPECDEKGNYRPQQSHVYSWCVDEYGEEVFGSRSFPGKPPKPCEASGETPCIKERNKVLSAAEPLLGAFVPDCDEKGYFSPLQSHGSTGYSWCVTKNGDEIKGTRTGPGQSPPTCEVPAPVTLHYAVAVVKKSSSFHLDQLKGKRSCHSAVGEAAGWVAPLNVLLKKKLLLWEEPEPKTIEKVASEIFSASCAPGAQEANLCEQCAGQEDKCTRGPGEPYYGDEGAFRCLREDKGDVAFVEDTALTGQYSDNFELLCPDNTRRPLSQYKICNFGRIPRHAVVTRSSGDKMKDITEYLLQAQKKECKLFSSTHGKDLLFEDTTSALIALPSAMDTFLFLGPDLFNGMKTLNGARPPQVNQQIRWCPQSKNEKKKCDDWSSVSGGAIKCTEPSSGLECIKMILKGEAEAVNLDIEHSYIALKCGLLPSVDEYRNKDDLIPCQIPGSEYSEFGSYRIVALVKKTDKDLTWNNLQGKKSCHTRAGDMIGWNIPVYLISKKTKNCDLGSYFSQSCAPGSPIDSNLCKLCIGDPQNPQANTKCSISDKEAYYGHEGAIRCLVEKGDVAFVPHTAIFENTDGKNPALWAKDLKSTDFELLCPDGSRAPVNDYKKCKLSGIANQIAITRPESVKDVVRIIQNQQSLYGRTGSQKDIFQMFSSSYGQNLLFSDRTQCLVEFDRMLDRDIMDDYFGKPFHKHLLRDNDCLPKSALASACSFHH
modifications: Ranitomeya imitator
B2: E540Q: RcSxph STX binding pocket mutant E540Q (protein)
chain: MAPTFQTALFFTIISLSFAAPNAKQVRWCAISDLEQKKCNDLVGSCNVPDITLVCVLRSSTEDCMTAIKDGQADAMFLDSGEVYEASKDPYNLKPIIAEPYSSNRDLQKCLKERQQALAKKMIGHYIPQCDEKGNYQPQQCHGSTGHCWCVNAMGEKISGTNTPPGQTRATCERHELPKCLKERQVALGGDEKVLGRFVPQCDEKGNYEPQQFHGSTGYSWCVNAIGEEIAGTKTPPGKIPATCQKHDLVTTCHYAVAMVKKSSAFQFNQLKGKRSCHSGVSKTDGWKALVTVLVEKKLLSWDGPAKESIQRAMSKFFSVSCIPGATQTNLCKQCKGEEGKNCKNSHDEPYYGNYGAFRCLKEDMGDVAFLRSTALSDEHSEVYELLCPDNTRKPLNKYKECNLGTVPAGTVVTRKISDKTEDINNFLMEAQKRQCKLFSSAHGKDLMFDDSTLQLALLSSEVDAFLYLGVKLFHAMKALTGDAHLPSKNKVRWCTINKLEKMKCDDWSAVSGGAIACTEASCPKGCVKQILKGEADAVKLEVQYMYEALMCGLLPAVQEYHNKDDFGPCKTPGSPYTDFGTLRAVALVKKSNKDINWNNIKGKKSCHTGVGDIAGWVIPVSLIRRQNDNSDIDSFFGESCAPGSDTKSNLCKLCIGDPKNSAANTKCSLSDKEAYYGNQGAFRCLVEKGDVAFVPHTVVFENTDGKNPAVWAKNLKSEDFELLCLDGSRAPVSNYKSCKLSGIPPPAIVTREESISDVVRIVANQQSLYGRKGFEKDMFQLFSSNKGNNLLFNDNTQCLITFDRQPKDIMEDYFGKPYYTTVYGASRSAMSSELISACTIKHC
B3: I782A/Y558A: RcSxph STX binding pocket double mutant I782A/Y558A (protein)
chain: B2 chain with Q559E, Y577A, I801A
B4: K789A: RcSxph STX binding pocket mutant K789A (protein)
chain: B2 chain with Q559E, K808A
B5: F784A: RcSxph STX binding pocket mutant F784A (protein)
chain: B2 chain with Q559E, F803A
B6: D785A: RcSxph STX binding pocket mutant D785A (protein)
chain: B2 chain with Q559E, D804A
B7: F784Y: RcSxph STX binding pocket mutant F784Y (protein)
chain: B2 chain with Q559E, F803Y
B8: T563A: RcSxph STX binding pocket mutant T563A (protein)
chain: B2 chain with Q559E, T582A
B9: D794N: RcSxph STX binding pocket mutant D794N (protein)
chain: B2 chain with Q559E, D813N
B10: Q787E: RcSxph STX binding pocket mutant Q787E (protein)
chain: B2 chain with Q559E, Q806E
B11: F784S: RcSxph STX binding pocket mutant F784S (protein)
chain: B2 chain with Q559E, F803S
B12: Q787A: RcSxph STX binding pocket mutant Q787A (protein)
chain: B2 chain with Q559E, Q806A
B13: F784L: RcSxph STX binding pocket mutant F784L (protein)
chain: B2 chain with Q559E, F803L
B14: I782F: RcSxph STX binding pocket mutant I782F (protein)
chain: B2 chain with Q559E, I801F
B15: Y558F: RcSxph STX binding pocket mutant Y558F (protein)
chain: B2 chain with Q559E, Y577F
B16: Y795A: RcSxph STX binding pocket mutant Y795A (protein)
chain: B2 chain with Q559E, Y814A
B17: F784C: RcSxph STX binding pocket mutant F784C (protein)
chain: B2 chain with Q559E, F803C
B18: MaSxph: Mantella aurantiaca (Golden mantella) saxiphilin, SEQ ID NO: 3 (protein, listed as Mantella aurantiaca)
chain: MALTFQTALYFTIIGLSFVTSSARDVRWCVISDLEQKKCNDLVGSCKVSGITLVCVHRSSTENCMTAIRDEQADAMFLDSGDVYKASMSPYNLKPIIAESYSSHKECLKKRQEALGGANVLGQFVPQCDEKGSYQPQQCYGSTGHCWCVNAIGEEIVGTKTQPGQTQATCERHDQTKCLKDRQKALAKKMIGGFVPQCDEKGNFKPRQCHGSTGYCWCTNANGEKIAATNTPPQQSPPTCERHDLDSCHYAVAVVKKSSIFQFNQLKGKRSCHSGVSKTDGWKAPVSVLVDKNLLSWDRAAKESIEKAVSKFFSDSCIPGATETNLCNQCMGEGGKKCMSSHDEPYYGDHGAFRCLKEDKGDVAFLKNTVLSDTHSEDYELLCPDNTRKPLNKYKECNLGKVPADAVVTRKSGDKIKDINDFLLEAQKKHCQLFSSAHGKDLMFDDSTTQLSLLPPEVDVFFFLGVQWLNTMKTLTADVKPPSKNKVRWCTVNNLEKMKCDDWSAVSGGAIECTEASSPEHCIKQIVKGEADAVTLDVQYMYEALKCGLLPAVEEYHNKDDFGPCKTPGSEIKDFGAKRAVALVKKSNKDINWHNLKGKKSCHTGVGDQAGWIIPVGLISRQIDNCNIDSFFSESCAPGSDTTSNFCKLCIGDPSNPMANTKCSLSDKEAYHGNEGAIRCLVEKGDVAFVHHTAVFENTDGKNPAEWAANLKSEDFEILCLDGSRAPVSNYMTCRLSGVPPRAIVTREESVSDVVRILINQQSLFGRNGFEKDMFQMFSSNKGQNLLFNDGTQCLIEFDRQPRGIMEDYFGKPYYNAVYNTSKCVLPSELTSACTFKHC

Assay type: binding
Settings: for STX/F-STX affinity compared with RcSxph / Kd: FP; for Kd: 1 nM F-STX, 25° C., errors S.D.; for ΔΔG: ΔΔG = RT ln(Kd mutant or XSxph/Kd RcSxph), T = 298K, FP with F-STX

| Molecule | STX/F-STX affinity compared with RcSxph | Kd [nM] | ΔΔG [kcal/mol] |
| --- | --- | --- | --- |
| B1 | higher affinity for STX than RcSxph; also recorded: binds STX more strongly than RcSxph | 0.8 ± 0.3 | -1.32 |
| B2 |  | 10600 ± 1320 | 4.30 |
| B3 |  | 1.2 ± 0.2 | -1.07 |
| B4 |  | 5.1 ± 1.7 | -0.22 |
| B5 |  | 725 ± 109 | 2.71 |
| B6 |  | 19.5 ± 2.5 | 0.57 |
| B7 |  | 13.8 ± 1 | 0.37 |
| B8 |  | 5.3 ± 0.5 | -0.20 |
| B9 |  | 3230 ± 397 | 3.60 |
| B10 |  | 6.4 ± 1.6 | -0.09 |
| B11 |  | 3240 ± 508 | 3.60 |
| B12 |  | 11.3 ± 1.1 | 0.25 |
| B13 |  | 48 ± 6.8 | 1.11 |
| B14 |  | 16.1 ± 4.1 | 0.46 |
| B15 |  | 6.3 ± 2.3 | -0.10 |
| B16 |  | 8.4 ± 2.1 | 0.08 |
| B17 |  | 1510 ± 346 | 3.15 |
| B18 | enhanced affinity | 0.4 ± 0.1 | -1.73 |
